Experimental data reported in article PMC3409205, “Crystal Structure of TNF-α-Inducing Protein from Helicobacter Pylori in Active Form Reveals the Intrinsic Molecular Flexibility for Unique DNA-Binding” (PLoS ONE, 2012).

How the values were obtained:
[1] = biological target: the molecule itself; test: SEC; analytical gel filtration, Superdex 75 10/300 GL, no reducing agent, pH 4.0 and pH 7.0, dimeric protein concentration 2 mg/ml (also 0.05 and 0.25 mg/ml, Fig. S1)
TipαN25 (wild type) [2] = biological target: T1, TipαN25 (wild type) (Helicobacter pylori 26695, UniProt O25318 25-192); test: ITC; pH 5.0; n=1.47; ITC: 50 mM citric acid/Na citrate pH 5.0, 150 mM NaCl, 25 °C; SPR: 50 mM Hepes pH 7.0, 150 mM NaCl, 0.005% Tween20, 25 °C; conditions: protein: recombinant; tags: C-terminal LE-6xHis; chain copies: 2; called ssDNA by authors; self-complementary repeat
TipαN25 (wild type) [3] = biological target: T1, TipαN25 (wild type); test: ITC; pH 5.0; n about 1; ITC: 50 mM citric acid/Na citrate pH 5.0, 150 mM NaCl, 25 °C; SPR: 50 mM Hepes pH 7.0, 150 mM NaCl, 0.005% Tween20, 25 °C; conditions: protein: recombinant; tags: C-terminal LE-6xHis; chain copies: 2
TipαN25 H60A [4] = biological target: T2, TipαN25 H60A (Helicobacter pylori 26695, UniProt O25318 25-192, H60A); test: SPR; pH 7.0; ka 2.9 M-1 s-1, kd 1.75E-04 s-1; ITC: 50 mM citric acid/Na citrate pH 5.0, 150 mM NaCl, 25 °C; SPR: 50 mM Hepes pH 7.0, 150 mM NaCl, 0.005% Tween20, 25 °C; conditions: protein: recombinant; tags: C-terminal LE-6xHis; chain copies: 2; label: 5' biotin; called ssDNA by authors; self-complementary repeat
TipαN25 H60A [5] = biological target: T2, TipαN25 H60A; test: ITC; pH 5.0; n=0.5; ITC: 50 mM citric acid/Na citrate pH 5.0, 150 mM NaCl, 25 °C; SPR: 50 mM Hepes pH 7.0, 150 mM NaCl, 0.005% Tween20, 25 °C; conditions: protein: recombinant; tags: C-terminal LE-6xHis; chain copies: 2; called ssDNA by authors; self-complementary repeat
TipαN25 K104A = TipαN25 K104A (Helicobacter pylori 26695, UniProt O25318 25-192, K104A); test: ITC; pH 5.0; n=0.87; ITC: 50 mM citric acid/Na citrate pH 5.0, 150 mM NaCl, 25 °C; SPR: 50 mM Hepes pH 7.0, 150 mM NaCl, 0.005% Tween20, 25 °C; conditions: protein: recombinant; tags: C-terminal LE-6xHis; chain copies: 2; called ssDNA by authors; self-complementary repeat
TipαN25 R77A = TipαN25 R77A (Helicobacter pylori 26695, UniProt O25318 25-192, R77A); test: ITC; pH 5.0; n=0.477; ITC: 50 mM citric acid/Na citrate pH 5.0, 150 mM NaCl, 25 °C; SPR: 50 mM Hepes pH 7.0, 150 mM NaCl, 0.005% Tween20, 25 °C; conditions: protein: recombinant; tags: C-terminal LE-6xHis; chain copies: 2; called ssDNA by authors; self-complementary repeat
TipαN25 R77A/R81A = TipαN25 R77A/R81A (Helicobacter pylori 26695, UniProt O25318 25-192, R77A;R81A); test: ITC; pH 5.0; n=0.491; ITC: 50 mM citric acid/Na citrate pH 5.0, 150 mM NaCl, 25 °C; SPR: 50 mM Hepes pH 7.0, 150 mM NaCl, 0.005% Tween20, 25 °C; conditions: protein: recombinant; tags: C-terminal LE-6xHis; chain copies: 2; called ssDNA by authors; self-complementary repeat
TipαN25 K65A/K66A = TipαN25 K65A/K66A (Helicobacter pylori 26695, UniProt O25318 25-192, K65A;K66A); test: ITC; pH 5.0; n=0.921; ITC: 50 mM citric acid/Na citrate pH 5.0, 150 mM NaCl, 25 °C; SPR: 50 mM Hepes pH 7.0, 150 mM NaCl, 0.005% Tween20, 25 °C; conditions: protein: recombinant; tags: C-terminal LE-6xHis; chain copies: 2; called ssDNA by authors; self-complementary repeat
TipαN25 (wild type) [6] = biological target: T1, TipαN25 (wild type); test: ITC; pH 5.0; n=0.925 dimer per DNA; ITC: 50 mM citric acid/Na citrate pH 5.0, 150 mM NaCl, 25 °C; SPR: 50 mM Hepes pH 7.0, 150 mM NaCl, 0.005% Tween20, 25 °C; conditions: protein: recombinant; tags: C-terminal LE-6xHis; chain copies: 2; called ssDNA by authors; self-complementary repeat
TipαN25 (wild type) [7] = biological target: T1, TipαN25 (wild type); test: ITC; pH 5.0; n=1.17; ITC: 50 mM citric acid/Na citrate pH 5.0, 150 mM NaCl, 25 °C; SPR: 50 mM Hepes pH 7.0, 150 mM NaCl, 0.005% Tween20, 25 °C; conditions: protein: recombinant; tags: C-terminal LE-6xHis; chain copies: 2; called ssDNA by authors; self-complementary repeat

B1: TipαN^25 (N-terminal-truncated TNF-α-inducing protein Tipα starting from residue Cys25) (domain or fragment)
chain: CTCPNTSQRNSFLQDVPYWMLQNRSEYITQGVDSSHIVDGKKTEEIEKIATKRATIRVAQNIVHKLKEAYLSKTNRIKQKITNEMFIQMTQPIYDSLMNVDRLGIYINPNNEEVFALVRARGFDKDALSEGLHKMSLDNQAVSILVAKVEEIFKDSVNYGDVKVPIAM
notes: Tipα (TNF-α-inducing protein), Helicobacter pylori strain 26695, gene 0596, 192 amino acids; residues 25-192 (Δ1–24), amplified from genomic DNA into pET22b(+); The entry is the single chain (protomer); A SeMet form (E. coli B834) was used only for phasing; also called Tipα (Δ1–24); native TipαN^25; source: E. coli BL21 (DE3), purified (Ni-NTA, Hitrap SP cation exchange, Superdex 75)
B1 was tested, and the “stoichiometry N” value [1] was 2.

B2: (dGdC)30, 60 nt (ssDNA)
DNA: GCGCGCGCGCGCGCGCGCGCGCGCGCGCGCGCGCGCGCGCGCGCGCGCGCGCGCGCGCGC
Binder B2 has a Ka (TipαN25 (wild type) [2]) of 1.03e+06 M⁻¹.

B3: 20 bp dsDNA (dsDNA)
DNA 1: GCCTTGCCGCCGCCCTTGCC
DNA 2: GGCAAGGGCGGCGGCAAGGC
B3 gave a Ka (TipαN25 (wild type) [3]) of 1.02e+06 M⁻¹.

In the case of GCGCGCGCGCGCGCGCGCGC (ssDNA) [5'-biotin (dGdC)10, 20 nt], the Kd (TipαN25 H60A [4]) is reported as 60.3 µM.

Work on GCGCGCGCGCGCGCGCGCGC (ssDNA) [(dGdC)10, 20 nt] yielded a Ka (TipαN25 H60A [5]) of 28200 M⁻¹, a Ka (TipαN25 K104A) of 631000 M⁻¹ and a Ka (TipαN25 R77A) of 479000 M⁻¹. For the same binder, the Ka (TipαN25 R77A/R81A) was 140000 M⁻¹, the Ka (TipαN25 K65A/K66A) was 261000 M⁻¹ and the Ka (TipαN25 (wild type) [6]) was 1.04e+06 M⁻¹.

Work on GCGCGCGCGCGCGCGCGCGCGCGCGCGCGCGCGCGCGCGC (ssDNA) [(dGdC)20, 40 nt] yielded a Ka (TipαN25 (wild type) [7]) of 937000 M⁻¹.
